Experimental data taken from publication PMC10132805 (2023).

B3: N-terminal domain of clathrin (domain or fragment)
chain: MAQILPIRFQEHLQLQNLGINPANIGFSTLTMESDKFICIREKVGEQAQVVIIDMNDPSNPIRRPISADSAIMNPASKVIALKAGKTLQIFNIEMKSKMKAHTMTDDVTFWKWISLNTVALVTDNAVYHWSMEGESQPVKMFDRHSSLAGCQIINYRTDAKQKWLLLTGISAQQNRVVGAMQLYSVDRKVSQPIEGHAASFAQFKMEGNAEESTLFCFAVRGQAGGKLHIIEVGTPPTGNQPFPKKAVDVFFPPEAQNDFPVAMQISEKHDVVFLITKYGYIHLYDLETGTCIYMNRISGETIFVTAPHEATAGIIGVNRKGQVLSVCVEEENIIPYITNVLQNPDLALRMAVRNNLAGAEELF

What was measured:
Test in all cases: FP
[1] = target: M 26-41 (RABV)
[2] = target: T1, C terminal domain of polyadenylate-binding protein 1 (human, UniProt P11940 544-623)
T1 chain: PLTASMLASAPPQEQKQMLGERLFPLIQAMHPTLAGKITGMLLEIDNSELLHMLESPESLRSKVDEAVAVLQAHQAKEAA

[3] = target: NP (ZEBOV) peptide with the 466-YGEY-469 stretch (Zaire ebolavirus, UniProt P18272)
[4] = target: SYNRG 664-679 (Human)
[5] = target: Nsp3_(1765-1780) (EEEV) peptide (Eastern equine encephalitis virus)
[6] = target: RdRp 1840-1855 (SVV)
[7] = target: ARRB2 367-382 (Human)
[8] = target: AP1B1 626-641 (Human)
[9] = target: Reston ebolavirus (REBOV) nucleoprotein (NP) peptide (Reston ebolavirus)
[10] = target: CEP55 binding peptide from TEX1 (human, UniProt Q8IWB6)
[11] = target: CEP55 binding peptide from ALIX (human, UniProt Q8WUM4)
[12] = target: Rabies virus (RABV) protein P peptide (Rabies virus)
[13] = target: EGFR 992-1007 (Human)
[14] = target: NP (ZEBOV) peptide with the 340-YQQL-343 sequence (Zaire ebolavirus, UniProt P18272)
[15] = target: L (OLVV)
[16] = target: Nsp4 75-90 (BAV)
[17] = target: ACP2 407-422 (Human)
[18] = target: T2, programmed cell death 6-interacting protein (ALIX) V domain (human)
T2 chain: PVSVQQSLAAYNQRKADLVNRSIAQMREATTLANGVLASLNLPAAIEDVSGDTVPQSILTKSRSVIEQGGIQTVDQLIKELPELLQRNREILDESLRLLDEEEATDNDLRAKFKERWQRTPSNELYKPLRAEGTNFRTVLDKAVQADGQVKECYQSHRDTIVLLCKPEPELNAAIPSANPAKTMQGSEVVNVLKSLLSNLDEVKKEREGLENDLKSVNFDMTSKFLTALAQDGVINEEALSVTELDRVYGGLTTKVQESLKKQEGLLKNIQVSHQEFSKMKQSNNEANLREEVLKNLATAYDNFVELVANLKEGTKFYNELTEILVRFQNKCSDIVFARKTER

[19] = target: TSG101 binding peptide from ALIX (PDC6IP) (human, UniProt Q8WUM4)
[20] = target: VP40 1-20 (SEBOV)
[21] = target: B3

B1: VHS domain of the ADP-ribosylation factor-binding protein GGA3 (domain or fragment)
chain: ATNPSNRQEDWEYIIGFCDQINKELEGPQIAVRLLAHKIQSPQEWEALQALTVLEACMKNCGRRFHNEVGKFRFLNELIKVVSPKYLGDRVSEKVKTKVIELLYSWTMALPEEAKIKDAYHMLKRQGIVQS
[1]
  Kd: 150 µM

## SAGLNPAAVPFVPKNQ [P/V/C_(183-198) (HeV) peptide]
[2]
  Kd: 2 µM

B2: GAE domain of the ADP-ribosylation factor-binding protein GGA3 (domain or fragment)
chain: SSALPVTAYDKNGFRILFHFAKECPPGRPDVLVVVVSMLNTAPLPVKSIVLQAAVPKSMKVKLQPPSGTELSPFSPIQPPAAITQVMLLANPLKEKVRLRYKLTFALGEQLSTEVGEVDQFP
[3]
  Kd: 10 µM
[4]
  Kd: 11 µM

## NSMLNPNAVPFQPSPQ [N_(2-17) (BeV) peptide]
[2]
  Kd: 2.7 µM

## B3
[5]
  Kd: 27 µM
[6]
  Kd: ~800 µM
[7]
  Kd: 39 µM
[8]
  Kd: 280 µM

## HPLLNPSALEFNPSQT [N_(351-366) (HCoV 229E) peptide]
[2]
  Kd: 23 µM

B4: centrosomal protein of 55 kDa EABR domain (domain or fragment)
chain: FNSSINNIHEMEIQLKDALEKNQQWLVYDQQREVYVKGLLAKIFELEKKTETAAH
[9]
  Kd: 2.2 µM
[10]
  Kd: ~0.3 µM
[11]
  Kd: ~0.3 µM
[12]
  Kd: 22 µM

B5: Mu homology domain (MHD) of the AP-2 subunit mu (domain or fragment)
chain: RNELFLDVLESVNLLMSPQGQVLSAHVSGRVVMKSYLSGMPECKFGMNDKIVIEKQGKGTADETSKSGKQSIAIDDCTFHQCVRLSKFDSERSISFIPPDGEFELMRYRTTKDIILPFRVIPLVREVGRTKLEVKVVIKSNFKPSLLAQKIEVRIPTPLNTSGVQVICMKGKAKYKASENAIVWKIKRMAGMKESQISAEIELLPTNDKKKWARPPISMNFEVPFAPSGLKVRYLKVFEPKLNYSDHDVIKWVRYIGRSGIYETR
[13]
  Kd: 2.4 µM
[14]
  Kd: 9.5 µM
[15]
  Kd: 11 µM
[16]
  Kd: 16 µM
[17]
  Kd: 220 µM

## MSKLSVNAPEFYPSGY [PABP-interacting protein 1 peptide PAIP1_(125-140)]
[2]
  Kd: 1.6 µM

## VDEEKGLYPNLKLTEPTAPMIHNYM [Nsp4_(118-142) (BAV) peptide]
[18]
  Kd: 160 µM

B6: tumor susceptibility gene 101 protein UEV domain (domain or fragment)
chain: AVSESQLKKMVSKYKYRDLTVRETVNVITLYKDLKPVLDSYVFNDGSSRELMNLTGTIPVPYRGNTYNIPICLWLLDTYPYNPPICFVKPTSSMTIKTGKHVDANGKIYLPYLHEWKHPQSDLLGLIQVMIVVFGDEPPVFSRP
[19]
  Kd: 150 µM
[20]
  Kd: 12 µM

## TTGLNPTAVPFTLRNL [P/V/C_(183-198) (NiV) peptide]
[2]
  Kd: 15 µM

## VDGAADLIDFSVPTDE [mu-NS_(705-720) (MRV1) peptide]
[21]
  Kd: 32 µM

## KSNLNPNAKEFVPGVK [PABP-interacting protein 2 peptide PAIP2_(108-123)]
[2]
  Kd: 0.16 µM
